Molecular target: the molecule itself
Experiment: oligomer pelleting by centrifugation with UV absorbance of the supernatant

B1: RAGE VC1 (tandem V and C1 domains of the receptor for advanced glycation end products) (domain or fragment, human)
chain: AQNITARIGEPLVLKCKGAPKKPPQRLEWKLNTGRTEAWKVLSPQGGGPWDSVARVLPNGSLFLPAVGIQDEGIFRCQAMNRNGKETKSNYRVRVYQIPGKPEIVDSASELTAGVPNKVGTCVSEGSYPAGTLSWHLDGKPLVPNEKGVSVKEQTRRHPETGLFTLQSELMVTPARGGDPRPTFSCSFSPGLPRHRALRTAPIQPRVWEPVPLEEVQL
- Kd: 3.8 ± 1.3 µM

— article PMC4250094 (Structure (London, England : 1993), 2010)
